The target in test [1] is NUC167 with H2A.X in place of H2A (human) (UniProt P16104). Kind of test: BLI; Octet RED96e, 25 C; biotinylated nucleosome captured on streptavidin biosensors; PARP1 0.195-3.125 nM in PBST pH 7.4; association 120 s, dissociation 15 min; 1:1 model. Background: Biolayer interferometry detects binding as a change in optical thickness at a sensor tip.
Test [2] concerns the target NUC167 with H2A.X-S139E (mutant mimic of γH2A.X) in place of H2A (human). The test is described as above.
For test [3], the target named is NUC167 with γH2A.X [H2A.X (pS139)] in place of H2A (human) (UniProt P16104). The description is as above.
For test [4], the target named is NUC167, nucleosome with a single double-helical turn linker DNA at both termini (H2A) (human). Described as above.
For test [5], the target named is 145 bp nucleosome core particle (NCP) with H2A (human). Kind of test: SPR; Biacore 3000, room temperature, 10 ul/min; nucleosome/NCP with biotinylated DNA (600-700 RU) immobilised on CM5 chips with neutravidin; 20 mM Tris pH 7.5, 150 mM NaCl; PARP1 1.15-18.5 nM or NPARP1 2.32-37 nM injected; kinetic titration, 1:1 fit. For orientation: In SPR one partner is held on a chip, and binding of the other changes the refractive index at the surface.

Test [6] deals with NUC155, nucleosome with a single double-helical turn linker DNA at one terminus (H2A) (human). The test is described as above.
Test [7] has as its target NUC167, nucleosome with a single double-helical turn linker DNA at both termini (H2A) (human). The description is as above.
For test [8], the target named is PARP1 (UniProt P09874). Put plainly: BLI, nucleosome immobilised, PARP1 titrated. To be noted: reference: H2A.X nucleosome; sites S139.
Test [9] has as its target 145 bp nucleosome core particle assembled with H2A (NCP) (human) (UniProt P06899). Kind of test: SPR; Biacore 3000, room temperature, 10 ul/min; nucleosome/NCP with biotinylated DNA (600-700 RU) immobilised on CM5 chips with neutravidin; PARP1 (1.15-18.5 nM) or NPARP1 (2.32-37 nM) injected consecutively (kinetic titration, 1:1 fit); 20 mM Tris pH 7.5, 150 mM NaCl.
Test [10] has as its target nucleosome with a single double-helical turn linker DNA at both termini, assembled with H2A (NUC167) (human) (UniProt P06899). The test is described as above.
For test [11], the target named is nucleosome with a single double-helical turn linker DNA at one terminus, assembled with H2A (NUC155) (human) (UniProt P06899). The test is described as above.
In test [12] the target is NUC167 nucleosome assembled with H2A.X in place of H2A (human) (UniProt P06899). Kind of test: BLI; Octet RED96e, 25 °C; biotinylated nucleosome captured on streptavidin biosensors; PARP1 0.195-3.125 nM in PBST pH 7.4 (150 mM NaCl, 0.05% Tween-20); association 120 s, dissociation 15 min; 1:1 model.
In test [13] the target is NUC167 nucleosome assembled with H2A.X-S139E (mutant mimic of γH2A.X) in place of H2A (human) (UniProt P06899). The description is as above.
For test [14], the target named is NUC167 nucleosome assembled with γH2A.X [H2A.X (pS139)] in place of H2A (human) (UniProt P06899). Described as above.
Test [15] has as its target nucleosome with a single double-helical turn linker DNA at both termini, assembled with H2A (NUC167) (human) (UniProt P06899). The test is described as above.

This note sets out measurements from paper PMC6917767.

As for “PARP1 (poly(ADP-ribose) polymerase 1) (from UniProt P09874 1-1014) (enzyme)”, the koff (in general, a measure of how fast the partners let go of each other) was 0.000274 s⁻¹ in test [1]; 0.000328 s⁻¹ in test [2]; 0.000116 s⁻¹ in [3]; 0.000158 s⁻¹ in test [4]; 0.000743 s⁻¹ in test [5]; 0.00107 s⁻¹ in test [6]. In [7], this substance gave a koff of 0.000562 s⁻¹. The kon – broadly, the rate constant with which the complex forms – turned out to be 3.75e+06 M⁻¹ s⁻¹ in [1]; 7.5e+06 M⁻¹ s⁻¹ in test [2]; 2.43e+06 M⁻¹ s⁻¹ in test [3]; 825000 M⁻¹ s⁻¹ in test [4]; 1.06e+06 M⁻¹ s⁻¹ in [5]; 1.93e+06 M⁻¹ s⁻¹ in [6]. In test [7], this substance yielded a kon of 2.28e+06 M⁻¹ s⁻¹. Moreover, the figures for the Kd in test [5] and in test [6] were 0.701 nM and 0.554 nM, respectively.

For the substance “H2A.X (from UniProt P16104) H2A.X-S139E nucleosome”, the KD result in test [8] is “stronger; reference 73.2 ± 0.3”.

For the substance “NPARP1 (N-terminal half of PARP1, amino acids 1-486, lacking the WGR and catalytic domains) (from UniProt P09874 1-486) (domain or fragment)”, the Kd (as a rule, the equilibrium constant for the complex coming apart) was found to be 187 nM in test [9], 8.13 nM in test [10] and 17.3 nM in [11]. Besides, the koff in [9] was found to be 0.00424 s⁻¹; in test [10] it was 0.0244 s⁻¹; in test [11] it was 0.00107 s⁻¹. Moreover, the results for the kon in test [9], in test [10] and in test [11] were 22600 M⁻¹ s⁻¹, 3e+06 M⁻¹ s⁻¹ and 61900 M⁻¹ s⁻¹, respectively.

“H2A.X (from UniProt P16104) γH2A.X (pS139) nucleosome”: the KD entry in [8] is recorded as “stronger; reference 73.2 ± 0.3”.

For the substance “NPARP1 (N-terminal half of PARP1, amino acids 1-486) (from UniProt P09874 1-486) (domain or fragment)”, the Kd in [5] came out at 187 nM; in [6] it was 17.3 nM; in test [7] it was 8.13 nM. The results for the koff in [5], in [6] and in test [7] were 0.00424 s⁻¹, 0.00107 s⁻¹ and 0.0244 s⁻¹, respectively. Further, the results for the kon in test [5], in test [6] and in [7] were 22600 M⁻¹ s⁻¹, 61900 M⁻¹ s⁻¹ and 3e+06 M⁻¹ s⁻¹, respectively.

On to “poly(ADP-ribose) polymerase 1 (PARP1), full-length (from UniProt P09874 1-1014) (enzyme)”, for which the koff in [12] is 0.000274 s⁻¹; in [13], 0.000328 s⁻¹; in [14], 0.000116 s⁻¹; in test [15] it was 0.000158 s⁻¹; in test [9] it was 0.000743 s⁻¹; in [10] it was 0.000562 s⁻¹. For the same substance, in test [11], the koff was 0.00107 s⁻¹. Further, the kon in test [12] stood at 3.75e+06 M⁻¹ s⁻¹; in [13] it was 7.5e+06 M⁻¹ s⁻¹; in test [14], 2.43e+06 M⁻¹ s⁻¹; in test [15], 825000 M⁻¹ s⁻¹; in test [9], 1.06e+06 M⁻¹ s⁻¹; in test [10] it was 2.28e+06 M⁻¹ s⁻¹. Further, the kon in [11] worked out at 1.93e+06 M⁻¹ s⁻¹. In addition, the Kd in test [9] worked out at 0.701 nM; in test [11], 0.554 nM.
